Test results: publication PMC8358895 (Cell reports, 2021)

Target: MBP-PLK1 (UniProt P53350 1-603)
Test: pull-down

Chain of MBP-PLK1 (P53350 whole entry): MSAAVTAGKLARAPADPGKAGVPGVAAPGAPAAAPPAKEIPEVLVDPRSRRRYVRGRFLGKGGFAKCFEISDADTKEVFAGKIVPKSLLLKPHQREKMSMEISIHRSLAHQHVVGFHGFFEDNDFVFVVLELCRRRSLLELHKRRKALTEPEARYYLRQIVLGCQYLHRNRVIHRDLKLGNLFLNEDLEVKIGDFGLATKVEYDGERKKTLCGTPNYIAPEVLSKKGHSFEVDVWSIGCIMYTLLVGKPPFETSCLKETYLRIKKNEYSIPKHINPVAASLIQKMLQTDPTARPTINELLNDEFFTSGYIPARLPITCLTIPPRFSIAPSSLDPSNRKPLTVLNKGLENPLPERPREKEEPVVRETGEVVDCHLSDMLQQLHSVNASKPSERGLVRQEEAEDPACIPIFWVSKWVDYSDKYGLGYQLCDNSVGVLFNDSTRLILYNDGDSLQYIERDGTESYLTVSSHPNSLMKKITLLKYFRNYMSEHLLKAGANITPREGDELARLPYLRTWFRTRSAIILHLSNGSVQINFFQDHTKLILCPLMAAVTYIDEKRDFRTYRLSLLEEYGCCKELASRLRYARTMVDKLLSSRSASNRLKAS

B1: GST-Apolo1-N (domain or fragment)
chain: MFLPHMNHLTLEQTFFSQVLPKTVKLFDDMMYELTSQARGLSSQNLEIQTTLRNILQTMVQLLGALTGCVQHICATQESIILENIQSLPSSVLHIIKSTFVHCKNSESVYSGCLHLVSDLLQALFKEAYSLQKQLMELLDMVCMDPLVDDNDDILNMVIVIHSLLDICSVISSMDH
Q: Does B1 bind?
A: Result: binds
